Source: patent publication US20120220489A1

Key:
[1] = molecular target: Erk1-BSA 2.7x peptide-protein conjugate (human; bovine); assay: RPA, competition: +free H3 peptide 100 nM
[2] = molecular target: ERK1 (p42) active (phospho), human, Active Motif 31 152 (human) (UniProt P27361); assay: RPA, competition: +free H3 peptide 100 nM
[3] = molecular target: ERK1 (p44) active (GST tagged), human, Invitrogen PV 3311 (human) (UniProt P27361); assay: RPA, competition: +free H3 peptide 100 nM
[4] = molecular target: Histone H3 recombinant protein, calf, Roche 11 034 758 001 (calf) (UniProt P68432); assay: RPA, competition: +free H3 peptide 100 nM
[5] = molecular target: pRb recombinant protein, human, Active Motif 31 128 (human) (UniProt P06400); assay: RPA, competition: +free H3 peptide 100 nM
Sequence of UniProt P06400 (P06400 whole entry): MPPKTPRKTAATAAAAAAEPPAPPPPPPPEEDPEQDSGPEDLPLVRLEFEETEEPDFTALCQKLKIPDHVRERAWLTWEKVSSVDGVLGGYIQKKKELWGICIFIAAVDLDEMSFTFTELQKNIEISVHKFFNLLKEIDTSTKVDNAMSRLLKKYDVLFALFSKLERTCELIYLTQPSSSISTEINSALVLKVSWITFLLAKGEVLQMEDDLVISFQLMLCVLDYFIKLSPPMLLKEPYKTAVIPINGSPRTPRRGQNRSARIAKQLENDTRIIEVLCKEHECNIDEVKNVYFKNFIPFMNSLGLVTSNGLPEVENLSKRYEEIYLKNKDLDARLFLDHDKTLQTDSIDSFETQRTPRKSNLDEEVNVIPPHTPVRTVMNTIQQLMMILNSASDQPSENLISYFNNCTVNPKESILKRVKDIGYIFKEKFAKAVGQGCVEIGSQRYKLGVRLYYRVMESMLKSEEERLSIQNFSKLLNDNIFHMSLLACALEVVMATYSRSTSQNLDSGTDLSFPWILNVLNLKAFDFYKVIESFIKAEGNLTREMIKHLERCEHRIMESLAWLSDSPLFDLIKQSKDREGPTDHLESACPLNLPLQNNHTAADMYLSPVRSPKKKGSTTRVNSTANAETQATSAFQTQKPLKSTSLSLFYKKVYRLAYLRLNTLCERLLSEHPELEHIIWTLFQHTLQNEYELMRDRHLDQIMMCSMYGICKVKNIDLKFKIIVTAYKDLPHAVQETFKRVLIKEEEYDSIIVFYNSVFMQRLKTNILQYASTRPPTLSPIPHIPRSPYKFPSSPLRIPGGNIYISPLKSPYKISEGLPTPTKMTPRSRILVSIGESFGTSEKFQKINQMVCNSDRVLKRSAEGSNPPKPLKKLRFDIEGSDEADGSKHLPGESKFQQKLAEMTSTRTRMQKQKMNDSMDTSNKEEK

[6] = molecular target: ERK2 (p42), human, Biosource PHO 0104 (human) (UniProt P28482); assay: RPA, competition: +free H3 peptide 100 nM
Sequence of UniProt P28482 (P28482 2-360 limits assumed): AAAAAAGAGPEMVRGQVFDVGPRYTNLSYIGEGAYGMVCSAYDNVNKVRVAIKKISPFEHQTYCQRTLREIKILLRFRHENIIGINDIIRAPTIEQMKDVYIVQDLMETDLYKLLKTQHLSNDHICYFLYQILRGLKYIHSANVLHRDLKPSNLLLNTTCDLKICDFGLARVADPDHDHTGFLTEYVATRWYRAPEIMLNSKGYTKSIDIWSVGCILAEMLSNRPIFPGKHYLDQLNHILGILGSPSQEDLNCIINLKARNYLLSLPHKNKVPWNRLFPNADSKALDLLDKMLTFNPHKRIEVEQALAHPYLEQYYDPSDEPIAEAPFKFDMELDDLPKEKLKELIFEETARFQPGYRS

[7] = molecular target: pRb-BSA 1x peptide-protein conjugate (bovine); assay: RPA, competition: +free H3 peptide 100 nM
Sequence of pRb-BSA 1x peptide-protein conjugate (bovine) (P02769 25-607 limits assumed): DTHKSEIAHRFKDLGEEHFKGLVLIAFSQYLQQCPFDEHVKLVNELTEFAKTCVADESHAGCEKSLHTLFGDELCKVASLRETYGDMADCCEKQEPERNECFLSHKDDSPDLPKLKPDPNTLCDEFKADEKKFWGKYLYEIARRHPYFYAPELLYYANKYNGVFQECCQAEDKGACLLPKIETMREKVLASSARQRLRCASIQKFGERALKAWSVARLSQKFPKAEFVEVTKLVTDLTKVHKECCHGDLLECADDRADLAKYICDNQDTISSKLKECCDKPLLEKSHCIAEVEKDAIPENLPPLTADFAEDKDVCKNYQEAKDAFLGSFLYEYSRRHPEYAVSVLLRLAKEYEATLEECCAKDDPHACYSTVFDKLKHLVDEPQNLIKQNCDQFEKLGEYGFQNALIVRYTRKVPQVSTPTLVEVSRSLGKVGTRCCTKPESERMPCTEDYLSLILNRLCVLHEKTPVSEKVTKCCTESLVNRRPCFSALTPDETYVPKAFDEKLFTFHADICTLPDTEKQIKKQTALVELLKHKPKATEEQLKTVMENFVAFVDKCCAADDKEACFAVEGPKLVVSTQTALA

[8] = molecular target: pErk1/2-BSA 2.7x peptide-protein conjugate (human; bovine); assay: RPA, competition: +free H3 peptide 100 nM
Sequence of pErk1/2-BSA 2.7x peptide-protein conjugate (human; bovine) (P02769 25-607 limits assumed): as above

[9] = molecular target: Histone H3-BSA 2.7x peptide-protein conjugate (bovine); assay: RPA, competition: +free H3 peptide 100 nM
Sequence of Histone H3-BSA 2.7x peptide-protein conjugate (bovine) (P02769 25-607 limits assumed): as above

[10] = molecular target: Histone H3 recombinant protein, human, Upstate 14-494 (human) (UniProt P68431); assay: RPA, competition: +free H3 peptide 100 nM
[11] = molecular target: ERK1 (p44) inactive (GST tagged), human, Invitrogen PV 3312 (human) (UniProt P27361); assay: RPA, competition: +free H3 peptide 100 nM
[12] = molecular target: ERK1 (p44), human, Cell Signaling Technology 7416 (human) (UniProt P27361); assay: RPA, competition: +free H3 peptide 100 nM
[13] = molecular target: pErk1/2-BSA 2.7x peptide-protein conjugate (human; bovine); assay: RPA, 8 point dilution series of the peptide standard in buffer, assay 1
[14] = molecular target: Erk1-BSA 2.7x peptide-protein conjugate (human; bovine); assay: RPA, competition: +free pErk1/2 peptide 10 nM
[15] = molecular target: ERK1 (p42) active (phospho), human, Active Motif 31 152 (human) (UniProt P27361); assay: RPA, competition: +free pErk1/2 peptide 10 nM
[16] = molecular target: ERK1 (p44) active (GST tagged), human, Invitrogen PV 3311 (human) (UniProt P27361); assay: RPA, competition: +free pErk1/2 peptide 10 nM
[17] = molecular target: Histone H3 recombinant protein, calf, Roche 11 034 758 001 (calf) (UniProt P68432); assay: RPA, competition: +free pErk1/2 peptide 10 nM
[18] = molecular target: pRb recombinant protein, human, Active Motif 31 128 (human) (UniProt P06400); assay: RPA, competition: +free pErk1/2 peptide 10 nM
[19] = molecular target: ERK2 (p42), human, Biosource PHO 0104 (human) (UniProt P28482); assay: RPA, competition: +free pErk1/2 peptide 10 nM
[20] = molecular target: pRb-BSA 1x peptide-protein conjugate (bovine); assay: RPA, competition: +free pErk1/2 peptide 10 nM
[21] = molecular target: pErk1/2-BSA 2.7x peptide-protein conjugate (human; bovine); assay: RPA, competition: +free pErk1/2 peptide 10 nM
[22] = molecular target: Histone H3-BSA 2.7x peptide-protein conjugate (bovine); assay: RPA, competition: +free pErk1/2 peptide 10 nM
[23] = molecular target: Histone H3 recombinant protein, human, Upstate 14-494 (human) (UniProt P68431); assay: RPA, competition: +free pErk1/2 peptide 10 nM
[24] = molecular target: ERK1 (p44) inactive (GST tagged), human, Invitrogen PV 3312 (human) (UniProt P27361); assay: RPA, competition: +free pErk1/2 peptide 10 nM
[25] = molecular target: ERK1 (p44), human, Cell Signaling Technology 7416 (human) (UniProt P27361); assay: RPA, competition: +free pErk1/2 peptide 10 nM
[26] = molecular target: Erk1-BSA 2.7x peptide-protein conjugate (human; bovine); assay: RPA, competition: +free pErk1/2 peptide 100 nM
[27] = molecular target: Histone H3 recombinant protein, calf, Roche 11 034 758 001 (calf) (UniProt P68432); assay: RPA, competition: +free pErk1/2 peptide 100 nM
[28] = molecular target: pRb recombinant protein, human, Active Motif 31 128 (human) (UniProt P06400); assay: RPA, competition: +free pErk1/2 peptide 100 nM
[29] = molecular target: pRb-BSA 1x peptide-protein conjugate (bovine); assay: RPA, competition: +free pErk1/2 peptide 100 nM
[30] = molecular target: pErk1/2-BSA 2.7x peptide-protein conjugate (human; bovine); assay: RPA, competition: +free pErk1/2 peptide 100 nM
[31] = molecular target: Histone H3 recombinant protein, human, Upstate 14-494 (human) (UniProt P68431); assay: RPA, competition: +free pErk1/2 peptide 100 nM
[32] = molecular target: ERK1 (p44) inactive (GST tagged), human, Invitrogen PV 3312 (human) (UniProt P27361); assay: RPA, competition: +free pErk1/2 peptide 100 nM
[33] = molecular target: ERK1 (p44), human, Cell Signaling Technology 7416 (human) (UniProt P27361); assay: RPA, competition: +free pErk1/2 peptide 100 nM
[34] = molecular target: ERK1 (p42) active (phospho), human, Active Motif 31 152 (human) (UniProt P27361); assay: RPA standard curves
[35] = molecular target: ERK1 (p44) active (GST tagged), human, Invitrogen PV 3311 (human) (UniProt P27361); assay: RPA standard curves
[36] = molecular target: ERK1 (p44) inactive (GST tagged), human, Invitrogen PV 3312 (human) (UniProt P27361); assay: RPA standard curves
[37] = molecular target: ERK1 (p44), human, Cell Signaling Technology 7416 (human) (UniProt P27361); assay: RPA standard curves

Sequence of Erk1-BSA 2.7x peptide-protein conjugate (human; bovine) (peptide, as listed by the source limits assumed, chain 1 of 2): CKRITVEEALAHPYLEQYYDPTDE
Sequence of Erk1-BSA 2.7x peptide-protein conjugate (human; bovine) (P02769 25-607 limits assumed, chain 2 of 2): as the sequence (P02769 25-607 limits assumed) above

## Histone H3 antibody, Abcam ab1791
[1]
  maximum standard curve signal: 0.01 RFI
[2]
  maximum standard curve signal: < 0.01 RFI
[3]
  maximum standard curve signal: < 0.01 RFI
[4]
  maximum standard curve signal: 0.2 RFI
[5]
  maximum standard curve signal: < 0.01 RFI
[6]
  maximum standard curve signal: < 0.01 RFI
[7]
  maximum standard curve signal: < 0.01 RFI
[8]
  maximum standard curve signal: < 0.01 RFI
[9]
  maximum standard curve signal: 3.33 RFI
[10]
  maximum standard curve signal: 4.45 RFI
[11]
  maximum standard curve signal: 0.02 RFI
[12]
  maximum standard curve signal: < 0.01 RFI

## p44/42 MAPK (Erk1/2) antibody, Biosource 44-654G
[13]
  mean signal (standard curve): 0.01 RFI

## p44/42 MAPK phospho (pERK1/2) Thr202/Tyr204 antibody, Cell Signaling Technology #9101
[14]
  maximum standard curve signal: 0.01 RFI
[15]
  maximum standard curve signal: 0.01 RFI
[16]
  maximum standard curve signal: 0.05 RFI
[17]
  maximum standard curve signal: 0.01 RFI
[18]
  maximum standard curve signal: 0.01 RFI
[19]
  maximum standard curve signal: 0.01 RFI
[20]
  maximum standard curve signal: 0.01 RFI
[21]
  maximum standard curve signal: 1.05 RFI
[22]
  maximum standard curve signal: 0.1 RFI
[23]
  maximum standard curve signal: 0.01 RFI
[24]
  maximum standard curve signal: 0.01 RFI
[25]
  maximum standard curve signal: 0.01 RFI
[26]
  maximum standard curve signal: 0.02 RFI
[27]
  maximum standard curve signal: 0.01 RFI
[28]
  maximum standard curve signal: 0.01 RFI
[29]
  maximum standard curve signal: 0.01 RFI
[30]
  maximum standard curve signal: 0.45 RFI
[31]
  maximum standard curve signal: < 0.01 RFI
[32]
  maximum standard curve signal: 0.01 RFI
[33]
  maximum standard curve signal: < 0.01 RFI
[34]
  signal relative to pErk1 protein (Invitrogen): 12%
[35]
  signal intensity relative to the pErk1/2-BSA peptide standard: 25%
[36]
  signal relative to pErk1 protein (Invitrogen): 3%
[37]
  signal relative to pErk1 protein (Invitrogen): 11%
